B1: ZA (UpxZ of the PSA operon, Bacteroides fragilis) (natural protein)
chain: MNQVQNLQHIARELLYLGMDGSPIYTDHFRQLNTEVFRLSEALFSMKGATSEEEAAICLSLLMGYNATIYNDGDKESKIQSILDRSFAVLDHLPASLLKCQLLTYCYGEVFEEDLAQEAHQIMDSWKNRALSEEELEVMETLQTMEDNRYPCSEVED
B2: ZE (UpxZ of the PSE operon, Bacteroides fragilis) (natural protein)
chain: MNTLMTQIHELQHVAHELLYLGADGSPIYTDSFRQLNTEVLQKSDALFALKGENPEEEARLCLALLMGYNATIYDYGDKESKKQVILDRSLLVLESLPSSLLKCQLLTYCYGEVFEEELAKEAHAIIDYWDNKTLSIDEQETVDMLKMIEENQYPNNYID

Target: biotinylated-YE (UpxY of the PSE operon, Bacteroides fragilis) (Bacteroides fragilis NCTC 9343)
Experiment: BLI

| Binder | Kd | kon | koff |
| --- | --- | --- | --- |
| B1 | 0.9 nM | 1.1e+06 M⁻¹ s⁻¹ | – |
| B2 | 88 nM | 110000 M⁻¹ s⁻¹ | 0.0096 s⁻¹ |
